Results from PMC9864105.

Target: recombinant HIV-1 RTIN (reverse transcriptase and integrase in fusion form, the Pol precursor intermediate) (HIV-1 (NL4-3))
Experiment: SEC

recombinant HIV-1 RTIN (reverse transcriptase and integrase in fusion form, the Pol precursor intermediate) (enzyme)
share of rRTIN in the hexamer or higher multimer: 80%
